{"source": "patent US20200131230A1", "about": "(published 2020)", "binders": {"B1": {"name": "Compound 28 (peptide)", "peptide": "{CH2CO}-[2Nal]ISGRN[2Nal]VKWVC-NH2", "modifications": "thioether N-12", "SMILES": "CC[C@H](C)[C@@H]1NC(=O)[C@H](Cc2ccc3ccccc3c2)NC(=O)CSC[C@@H](C(N)=O)NC(=O)[C@H](C(C)C)NC(=O)[C@H](Cc2c[nH]c3ccccc23)NC(=O)[C@H](CCCCN)NC(=O)[C@H](C(C)C)NC(=O)[C@H](Cc2ccc3ccccc3c2)NC(=O)[C@H](CC(N)=O)NC(=O)[C@H](CCCNC(=N)N)NC(=O)CNC(=O)[C@H](CO)NC1=O"}, "B2": {"name": "Compound 43 (peptide)", "peptide": "{CH2CO}-[2Nal]ISGKNWVKWVC-NH2", "modifications": "thioether N-12", "SMILES": "CC[C@H](C)[C@@H]1NC(=O)[C@H](Cc2ccc3ccccc3c2)NC(=O)CSC[C@@H](C(N)=O)NC(=O)[C@H](C(C)C)NC(=O)[C@H](Cc2c[nH]c3ccccc23)NC(=O)[C@H](CCCCN)NC(=O)[C@H](C(C)C)NC(=O)[C@H](Cc2c[nH]c3ccccc23)NC(=O)[C@H](CC(N)=O)NC(=O)[C@H](CCCCN)NC(=O)CNC(=O)[C@H](CO)NC1=O"}, "B3": {"name": "Compound 41 (peptide)", "peptide": "{CH2CO}-[2Nal]ISGRNWVHWVC-NH2", "modifications": "thioether N-12", "SMILES": "CC[C@H](C)[C@@H]1NC(=O)[C@H](Cc2ccc3ccccc3c2)NC(=O)CSC[C@@H](C(N)=O)NC(=O)[C@H](C(C)C)NC(=O)[C@H](Cc2c[nH]c3ccccc23)NC(=O)[C@H](Cc2c[nH]cn2)NC(=O)[C@H](C(C)C)NC(=O)[C@H](Cc2c[nH]c3ccccc23)NC(=O)[C@H](CC(N)=O)NC(=O)[C@H](CCCNC(=N)N)NC(=O)CNC(=O)[C@H](CO)NC1=O"}, "B4": {"name": "Compound 44 (peptide)", "peptide": "{CH2CO}-[2Nal]ISGSNWVKWVC-NH2", "modifications": "thioether N-12", "SMILES": "CC[C@H](C)[C@@H]1NC(=O)[C@H](Cc2ccc3ccccc3c2)NC(=O)CSC[C@@H](C(N)=O)NC(=O)[C@H](C(C)C)NC(=O)[C@H](Cc2c[nH]c3ccccc23)NC(=O)[C@H](CCCCN)NC(=O)[C@H](C(C)C)NC(=O)[C@H](Cc2c[nH]c3ccccc23)NC(=O)[C@H](CC(N)=O)NC(=O)[C@H](CO)NC(=O)CNC(=O)[C@H](CO)NC1=O"}, "B5": {"name": "Compound 42 (peptide)", "peptide": "{CH2CO}-[2Nal]ISGHNWVKWVC-NH2", "modifications": "thioether N-12", "SMILES": "CC[C@H](C)[C@@H]1NC(=O)[C@H](Cc2ccc3ccccc3c2)NC(=O)CSC[C@@H](C(N)=O)NC(=O)[C@H](C(C)C)NC(=O)[C@H](Cc2c[nH]c3ccccc23)NC(=O)[C@H](CCCCN)NC(=O)[C@H](C(C)C)NC(=O)[C@H](Cc2c[nH]c3ccccc23)NC(=O)[C@H](CC(N)=O)NC(=O)[C@H](Cc2c[nH]cn2)NC(=O)CNC(=O)[C@H](CO)NC1=O"}, "B6": {"name": "Compound 12 (peptide)", "peptide": "{CH2CO}-FITGRNWVKWVC-NH2", "modifications": "thioether N-12", "SMILES": "CC[C@H](C)[C@@H]1NC(=O)[C@H](Cc2ccccc2)NC(=O)CSC[C@@H](C(N)=O)NC(=O)[C@H](C(C)C)NC(=O)[C@H](Cc2c[nH]c3ccccc23)NC(=O)[C@H](CCCCN)NC(=O)[C@H](C(C)C)NC(=O)[C@H](Cc2c[nH]c3ccccc23)NC(=O)[C@H](CC(N)=O)NC(=O)[C@H](CCCNC(=N)N)NC(=O)CNC(=O)[C@H]([C@@H](C)O)NC1=O"}, "B7": {"name": "Compound 13 (peptide)", "peptide": "{CH2CO}-FISGRTWVKWVC-NH2", "modifications": "thioether N-12", "SMILES": "CC[C@H](C)[C@@H]1NC(=O)[C@H](Cc2ccccc2)NC(=O)CSC[C@@H](C(N)=O)NC(=O)[C@H](C(C)C)NC(=O)[C@H](Cc2c[nH]c3ccccc23)NC(=O)[C@H](CCCCN)NC(=O)[C@H](C(C)C)NC(=O)[C@H](Cc2c[nH]c3ccccc23)NC(=O)[C@H]([C@@H](C)O)NC(=O)[C@H](CCCNC(=N)N)NC(=O)CNC(=O)[C@H](CO)NC1=O"}, "B8": {"name": "Compound 24 (peptide)", "peptide": "{CH2CO}-[2Nal]ISGRNWVKWVC-NH2", "modifications": "thioether N-12", "SMILES": "CC[C@H](C)[C@@H]1NC(=O)[C@H](Cc2ccc3ccccc3c2)NC(=O)CSC[C@@H](C(N)=O)NC(=O)[C@H](C(C)C)NC(=O)[C@H](Cc2c[nH]c3ccccc23)NC(=O)[C@H](CCCCN)NC(=O)[C@H](C(C)C)NC(=O)[C@H](Cc2c[nH]c3ccccc23)NC(=O)[C@H](CC(N)=O)NC(=O)[C@H](CCCNC(=N)N)NC(=O)CNC(=O)[C@H](CO)NC1=O"}, "B9": {"name": "Compound 52 (peptide)", "peptide": "{CH2CO}-[2Nal]ISGRNWVKW[Phg]C-NH2", "modifications": "thioether N-12", "SMILES": "CC[C@H](C)[C@@H]1NC(=O)[C@H](Cc2ccc3ccccc3c2)NC(=O)CSC[C@@H](C(N)=O)NC(=O)[C@H](c2ccccc2)NC(=O)[C@H](Cc2c[nH]c3ccccc23)NC(=O)[C@H](CCCCN)NC(=O)[C@H](C(C)C)NC(=O)[C@H](Cc2c[nH]c3ccccc23)NC(=O)[C@H](CC(N)=O)NC(=O)[C@H](CCCNC(=N)N)NC(=O)CNC(=O)[C@H](CO)NC1=O"}, "B10": {"name": "Compound 53 (peptide)", "peptide": "{CH2CO}-[2Nal]ISGRNWVKW[Tle]C-NH2", "modifications": "thioether N-12", "SMILES": "CC[C@H](C)[C@@H]1NC(=O)[C@H](Cc2ccc3ccccc3c2)NC(=O)CSC[C@@H](C(N)=O)NC(=O)[C@H](C(C)(C)C)NC(=O)[C@H](Cc2c[nH]c3ccccc23)NC(=O)[C@H](CCCCN)NC(=O)[C@H](C(C)C)NC(=O)[C@H](Cc2c[nH]c3ccccc23)NC(=O)[C@H](CC(N)=O)NC(=O)[C@H](CCCNC(=N)N)NC(=O)CNC(=O)[C@H](CO)NC1=O"}, "B11": {"name": "Compound 51 (peptide)", "peptide": "{CH2CO}-[2Nal]ISGRNW[Phg]KWVC-NH2", "modifications": "thioether N-12", "SMILES": "CC[C@H](C)[C@@H]1NC(=O)[C@H](Cc2ccc3ccccc3c2)NC(=O)CSC[C@@H](C(N)=O)NC(=O)[C@H](C(C)C)NC(=O)[C@H](Cc2c[nH]c3ccccc23)NC(=O)[C@H](CCCCN)NC(=O)[C@H](c2ccccc2)NC(=O)[C@H](Cc2c[nH]c3ccccc23)NC(=O)[C@H](CC(N)=O)NC(=O)[C@H](CCCNC(=N)N)NC(=O)CNC(=O)[C@H](CO)NC1=O"}, "B12": {"name": "Compound 59 (peptide)", "peptide": "{CH2CO}-[2Nal]ISGHNW[Nle]KWVC-NH2", "modifications": "thioether N-12", "SMILES": "CCCC[C@@H]1NC(=O)[C@H](Cc2c[nH]c3ccccc23)NC(=O)[C@H](CC(N)=O)NC(=O)[C@H](Cc2c[nH]cn2)NC(=O)CNC(=O)[C@H](CO)NC(=O)[C@H]([C@@H](C)CC)NC(=O)[C@H](Cc2ccc3ccccc3c2)NC(=O)CSC[C@@H](C(N)=O)NC(=O)[C@H](C(C)C)NC(=O)[C@H](Cc2c[nH]c3ccccc23)NC(=O)[C@H](CCCCN)NC1=O"}, "B13": {"name": "Compound 56 (peptide)", "peptide": "{CH2CO}-[2Nal]ISGKN[2Nal]VKWVC-NH2", "modifications": "thioether N-12", "SMILES": "CC[C@H](C)[C@@H]1NC(=O)[C@H](Cc2ccc3ccccc3c2)NC(=O)CSC[C@@H](C(N)=O)NC(=O)[C@H](C(C)C)NC(=O)[C@H](Cc2c[nH]c3ccccc23)NC(=O)[C@H](CCCCN)NC(=O)[C@H](C(C)C)NC(=O)[C@H](Cc2ccc3ccccc3c2)NC(=O)[C@H](CC(N)=O)NC(=O)[C@H](CCCCN)NC(=O)CNC(=O)[C@H](CO)NC1=O"}, "B14": {"name": "Compound 54 (peptide)", "peptide": "{CH2CO}-[2Nal]ISGRNWVKWV[hCys]-NH2", "modifications": "thioether N-12", "SMILES": "CC[C@H](C)[C@@H]1NC(=O)[C@H](Cc2ccc3ccccc3c2)NC(=O)CSCC[C@@H](C(N)=O)NC(=O)[C@H](C(C)C)NC(=O)[C@H](Cc2c[nH]c3ccccc23)NC(=O)[C@H](CCCCN)NC(=O)[C@H](C(C)C)NC(=O)[C@H](Cc2c[nH]c3ccccc23)NC(=O)[C@H](CC(N)=O)NC(=O)[C@H](CCCNC(=N)N)NC(=O)CNC(=O)[C@H](CO)NC1=O"}, "B15": {"name": "Compound 57 (peptide)", "peptide": "{CH2CO}-[2Nal]ISGKDW[Nle]KWVC-NH2", "modifications": "thioether N-12", "SMILES": "CCCC[C@@H]1NC(=O)[C@H](Cc2c[nH]c3ccccc23)NC(=O)[C@H](CC(=O)O)NC(=O)[C@H](CCCCN)NC(=O)CNC(=O)[C@H](CO)NC(=O)[C@H]([C@@H](C)CC)NC(=O)[C@H](Cc2ccc3ccccc3c2)NC(=O)CSC[C@@H](C(N)=O)NC(=O)[C@H](C(C)C)NC(=O)[C@H](Cc2c[nH]c3ccccc23)NC(=O)[C@H](CCCCN)NC1=O"}}, "note": "Positions of bridges follow the written chain, without caps; N, C: chain ends. Non-standard residues stand in square brackets, D forms with d. 2Nal = N[C@@H](Cc1ccc2ccccc2c1)C(=O)O; Phg = N[C@H](C(=O)O)c1ccccc1; Tle = CC(C)(C)[C@H](N)C(=O)O; hCys = N[C@@H](CCS)C(=O)O; Nle = CCCC[C@H](N)C(=O)O"}
{"molecular_target": "T1, Thrombospondin human platelet (Calbiochem, 605225) (human, UniProt P07996 19-1170)", "T1 sequence (P07996 19-1170 limits assumed)": "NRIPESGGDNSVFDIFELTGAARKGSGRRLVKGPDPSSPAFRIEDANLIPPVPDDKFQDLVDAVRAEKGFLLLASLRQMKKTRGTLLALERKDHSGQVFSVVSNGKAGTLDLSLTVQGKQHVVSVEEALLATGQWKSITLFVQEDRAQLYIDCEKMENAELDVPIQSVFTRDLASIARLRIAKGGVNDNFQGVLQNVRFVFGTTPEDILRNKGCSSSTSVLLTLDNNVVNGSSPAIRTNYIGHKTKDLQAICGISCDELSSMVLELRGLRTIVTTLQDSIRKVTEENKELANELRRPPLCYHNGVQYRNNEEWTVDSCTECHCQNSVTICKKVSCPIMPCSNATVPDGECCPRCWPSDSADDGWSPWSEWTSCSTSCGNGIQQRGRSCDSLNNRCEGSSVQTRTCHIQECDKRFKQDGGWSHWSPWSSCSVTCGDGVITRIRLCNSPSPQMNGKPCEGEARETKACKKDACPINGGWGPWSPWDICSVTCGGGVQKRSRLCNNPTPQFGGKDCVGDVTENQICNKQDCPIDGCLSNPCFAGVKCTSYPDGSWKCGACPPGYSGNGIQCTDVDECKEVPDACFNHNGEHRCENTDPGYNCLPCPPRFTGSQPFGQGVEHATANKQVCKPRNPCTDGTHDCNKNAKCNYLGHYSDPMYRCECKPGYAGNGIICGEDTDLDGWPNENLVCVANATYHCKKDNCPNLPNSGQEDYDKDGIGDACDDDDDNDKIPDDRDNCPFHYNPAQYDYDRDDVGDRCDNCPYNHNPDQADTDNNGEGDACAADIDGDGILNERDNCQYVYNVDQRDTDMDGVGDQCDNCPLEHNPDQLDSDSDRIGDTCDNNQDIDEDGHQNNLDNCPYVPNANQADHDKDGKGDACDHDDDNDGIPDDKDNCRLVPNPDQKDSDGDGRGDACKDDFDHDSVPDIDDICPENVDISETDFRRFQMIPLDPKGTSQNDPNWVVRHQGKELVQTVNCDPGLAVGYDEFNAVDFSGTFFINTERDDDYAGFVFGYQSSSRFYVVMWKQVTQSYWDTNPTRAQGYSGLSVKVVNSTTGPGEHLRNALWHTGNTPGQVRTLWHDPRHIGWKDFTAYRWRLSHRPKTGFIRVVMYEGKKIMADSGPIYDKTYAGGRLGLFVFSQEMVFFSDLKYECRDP", "experiment": "cell-based or functional assay", "units": {"Cell adhesion IC50": "nM"}}
{"binder": "B1", "Cell adhesion IC50": 29.4}
{"binder": "B2", "Cell adhesion IC50": 9.2}
{"binder": "B3", "Cell adhesion IC50": 16.4}
{"binder": "B4", "Cell adhesion IC50": 30.3}
{"binder": "B5", "Cell adhesion IC50": 32}
{"molecular_target": "T1, Thrombospondin human platelet …", "experiment": "cell-based or functional assay", "remark": "another data set of the same source", "units": {"Cell adhesion IC50": "nM"}}
{"binder": "B6", "Cell adhesion IC50": 22.2}
{"binder": "B7", "Cell adhesion IC50": 18.7}
{"binder": "B8", "Cell adhesion IC50": 6.1}
{"molecular_target": "T1, Thrombospondin human platelet …", "experiment": "cell-based or functional assay", "remark": "another data set of the same source", "units": {"Cell adhesion IC50": "nM"}}
{"binder": "B9", "Cell adhesion IC50": 10.3}
{"binder": "B10", "Cell adhesion IC50": 15.9}
{"binder": "B11", "Cell adhesion IC50": 16}
{"binder": "B12", "Cell adhesion IC50": 20.7}
{"binder": "B13", "Cell adhesion IC50": 13.2}
{"binder": "B14", "Cell adhesion IC50": 19.5}
{"binder": "B15", "Cell adhesion IC50": 15.6}
{"molecular_target": "Recombinant-hTSP1 (human, UniProt P07996 19-1170, limits assumed)", "sequence (P07996 19-1170 limits assumed)": "as above", "experiment": "SPR (Biacore T200), single-cycle kinetics, recombinant hTSP1 immobilised on NTA chip", "description": "First, 500 μM NiCl₂ was injected over an NTA-Chip (produced by GE Healthcare, BR100532) at a flow rate of 5 μL/min. for 1 minute to thereby activate NTA groups. Then, an EDC/NHS mixture was injected at a flow rate of 10 μL/min. for 7 minutes to thereby activate the carboxyl groups of dextran. Recombinant-hTSP1 was injected at a flow rate of 10 μL/min. for 7 minutes to immobilize the TSP1 on the substrate surfaces with activated NTA and carboxyl groups. Ethanolamine was injected at a flow rate of 10 μL/min. for 7 minutes to thereby deactivate unreacted, activated carboxyl groups.\nSince Biacore T200 is highly responsive to change in DMSO concentrations, DMSO solutions were sequentially injected at concentrations of 4%, 4.4%, 4.8%, 5.2%, 5.6%, and 6% to correct for DMSO effects.\nThe analysis was conducted using the evaluation software provided with Biacore T100 and T200. A DMSO correction curve obtained by solvent correction measurements was applied for the analysis. Kinetics fitting was done on the difference data obtained by subtracting the baseline data from sample measurement data.", "units": {"Kd": "nM"}}
{"binder": "B6", "Kd": 0.38}
{"binder": "B7", "Kd": 0.096}
{"binder": "B1", "Kd": 0.55}
{"binder": "B8", "Kd": 0.12}
{"binder": "B2", "Kd": 0.13}
{"binder": "B3", "Kd": 0.37}
{"binder": "B4", "Kd": 0.58}
{"binder": "B5", "Kd": 0.44}
